From US20230257470A1 (published 2023)

Tests used:
[1] = target: T1, human FcγRIIIa(F) (human, UniProt P08637 17-208, limits assumed); assay: SPR, antibody captured, FcγR as analyte, capture-corrected binding amount
T1 construct: the assay used allotype F; also called FcgRIIIaF; FcγRIIIa allotype F158
Protocol: Interaction between each modified antibody and Fcγ receptor prepared in the manner described above was analyzed using the BIACORE™ T100 surface plasmon resonance system (GE Healthcare), BIACORE™ T200 surface plasmon resonance system (GE Healthcare), BIACORE™ A100 surface plasmon resonance system or BIACORE™ 4000 surface plasmon resonance system. HBS-EP+(GE Healthcare) was used for the running buffer, and measurements were carried out at 25° C. The chips used were chips in which antigen peptides, Protein A (Thermo Scientific), Protein A/G (Thermo Scientific) or Protein L (ACTIGEN® protein (Alltech or BioVision) were immobilized on the Series S Sensor Chip CM5 (GE Healthcare) or Series S Sensor Chip CM4 (GE Healthcare) by amine coupling, or chips in which preliminarily biotinylated antigen peptides were allowed to interact and then immobilized on the Series S Sensor Chip SA (certified) (GE Healthcare). The target antibodies were captured on these sensor chips, Fcγ receptor diluted with the running buffer was allowed to interact, followed by measurement of the amount of bound antibody. The amounts bound were compared between antibodies. However, since the amount of Fcγ receptor bound depends on the amount of captured antibody, the values used for comparison were first corrected by dividing the amount of Fcγ receptor bound by the captured amount of each antibody. Through reaction with 10 mM glycine-HCl at pH 1.5, the sensor chips were regenerated by washing off antibody captured on the sensor chips and used repeatedly.
Binding strength was evaluated according to the following method based on the results of analyzing the interaction with each FcγR. […] That value was then further multiplied by 100, and the resulting value was used as an indicator of relative binding activity to each FcγR.

[2] = target: T2, human FcγRIa (human, UniProt P12314 16-292, limits assumed); assay: SPR (Biacore T100), ratio of the KD values of Table 24
T2 construct: Soluble analyte in SPR; also called hFcgRIa; FcgRIa
Protocol: (§1) Next, interaction between these antibodies and FcγR was analyzed kinetically using the BIACORE™ T100 (GE Healthcare). The interaction was measured at a temperature of 25° C. using HBS-EP+ (GE Healthcare) for the running buffer. The Series S Sensor Chip CM5 (GE Healthcare) was used after immobilizing Protein A by amine coupling. […] Antibody captured on the chip was washed by allowing 10 mM glycine-HCl (pH 1.5) to react following measurement. The chip regenerated in this manner was used repeatedly. The dissociation constant KD (mol/L) was calculated from the association rate constant ka (L/mol/s) and dissociation rate constant kd (1/s) as calculated by global-fitting the measurement results with a 1:1 Langmuir binding model using the BIACORE™ Evaluation Software.

[3] = target: T3, human FcγRIIa(R) (allotype R131) (human, UniProt P12318 36-217); assay: as above
T3 construct: Soluble analyte in SPR; also called hFcgRIIa(R); FcgRIIaR
T3 chain: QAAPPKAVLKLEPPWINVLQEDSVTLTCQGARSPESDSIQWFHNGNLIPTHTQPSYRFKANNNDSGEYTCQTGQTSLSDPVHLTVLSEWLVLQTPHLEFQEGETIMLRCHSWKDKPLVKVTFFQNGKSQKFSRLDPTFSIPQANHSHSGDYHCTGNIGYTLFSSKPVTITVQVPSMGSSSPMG
Protocol: as §1

[4] = target: T4, human FcγRIIa(H) (allotype H131) (human, UniProt P12318 36-217); assay: as above
T4 construct: Soluble analyte in SPR; also called hFcgRIIa(H); FcgRIIaH
T4 sequence: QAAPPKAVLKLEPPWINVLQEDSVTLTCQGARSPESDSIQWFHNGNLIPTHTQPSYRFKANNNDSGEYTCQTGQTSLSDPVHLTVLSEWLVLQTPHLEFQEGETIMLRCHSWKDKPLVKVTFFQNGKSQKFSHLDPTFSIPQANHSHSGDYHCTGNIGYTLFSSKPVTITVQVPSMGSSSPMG
Protocol: as §1

[5] = target: T5, human FcγRIIb (human, UniProt P31994 43-217, limits assumed); assay: as above
T5 construct: Soluble analyte in SPR; also called hFcgRIIb; FcgRIIb
T5 sequence: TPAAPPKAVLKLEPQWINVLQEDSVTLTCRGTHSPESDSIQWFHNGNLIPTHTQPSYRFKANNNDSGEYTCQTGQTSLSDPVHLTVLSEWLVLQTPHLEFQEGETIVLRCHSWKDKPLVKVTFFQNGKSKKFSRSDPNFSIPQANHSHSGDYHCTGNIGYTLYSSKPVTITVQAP
Protocol: as §1

[6] = target: T6, human FcγRIIa type R (human, UniProt P12318 36-217); assay: SPR (Biacore), antibody captured on Protein A chip, FcγR as analyte, 25 C, method of Example 14
T6 construct: also called FcγRIIaR; FcγRIIa(R)
T6 chain: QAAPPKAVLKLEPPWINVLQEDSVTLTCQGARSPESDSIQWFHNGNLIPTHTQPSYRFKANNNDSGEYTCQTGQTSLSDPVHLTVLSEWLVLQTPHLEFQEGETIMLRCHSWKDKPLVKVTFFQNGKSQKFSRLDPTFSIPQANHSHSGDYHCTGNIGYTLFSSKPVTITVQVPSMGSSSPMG
Protocol: as §1
Furthermore, KD(IIaR)/KD(IIb) and KD(IIaH)/KD(IIb) in the table respectively represent the value obtained by dividing the KD value of each variant for FcγRIIaR by the KD value of each variant for FcγRIIb, and the value obtained by dividing the KD value of each variant for FcγRIIaH by the KD value of each variant for FcγRIIb.

T2 sequence (P12314 16-292 limits assumed): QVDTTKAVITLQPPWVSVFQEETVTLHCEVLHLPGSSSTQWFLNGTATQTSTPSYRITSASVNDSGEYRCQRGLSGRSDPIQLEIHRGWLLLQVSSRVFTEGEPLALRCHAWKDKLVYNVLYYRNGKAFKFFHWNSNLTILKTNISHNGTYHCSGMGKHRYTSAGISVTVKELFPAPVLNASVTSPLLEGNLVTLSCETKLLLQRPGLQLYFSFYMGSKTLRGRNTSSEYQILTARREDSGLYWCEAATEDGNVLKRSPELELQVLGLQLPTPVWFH
T1 sequence (P08637 other isoform, or with tags, fused parts or gaps limits assumed): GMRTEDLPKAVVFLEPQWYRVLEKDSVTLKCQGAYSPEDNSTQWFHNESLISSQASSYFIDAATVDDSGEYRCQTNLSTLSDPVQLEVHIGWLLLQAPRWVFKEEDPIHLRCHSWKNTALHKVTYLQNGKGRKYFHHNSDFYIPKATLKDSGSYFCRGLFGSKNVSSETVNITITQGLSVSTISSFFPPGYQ

B1: GpH7-B3 N325F/GpL16-k0 (antibody, human IgG1)
heavy: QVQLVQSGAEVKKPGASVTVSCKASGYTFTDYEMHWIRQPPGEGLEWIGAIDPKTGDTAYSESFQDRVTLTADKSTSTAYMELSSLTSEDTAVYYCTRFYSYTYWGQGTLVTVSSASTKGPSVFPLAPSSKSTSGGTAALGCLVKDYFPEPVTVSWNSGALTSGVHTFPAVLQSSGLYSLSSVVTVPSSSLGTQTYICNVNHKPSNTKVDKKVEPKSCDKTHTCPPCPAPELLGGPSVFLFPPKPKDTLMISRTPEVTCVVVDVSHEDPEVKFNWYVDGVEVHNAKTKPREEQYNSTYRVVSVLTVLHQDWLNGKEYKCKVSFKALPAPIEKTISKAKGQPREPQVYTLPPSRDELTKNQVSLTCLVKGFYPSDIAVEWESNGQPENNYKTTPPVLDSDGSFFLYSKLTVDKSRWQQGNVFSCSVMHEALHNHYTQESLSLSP
light: DIVMTQSPLSLPVTPGEPASISCQASESLVHSNRNTYLHWYLQKPGQSPQLLIYKVSNRFSGVPDRFSGSGSGTDFTLKISRVEAEDVGVYYCSQNTHVPPTFGQGTKVEIE
notes: Anti-glypican-3 human IgG1 with B3 constant region (G1d with K439E); also called B3 variant; copies: 2 + 2
relative binding activity [1]: 1 % of GpH7-B3/GpL16-k0

B2: GpH7-B3 Y300R/GpL16-k0 (antibody, human IgG1)
heavy: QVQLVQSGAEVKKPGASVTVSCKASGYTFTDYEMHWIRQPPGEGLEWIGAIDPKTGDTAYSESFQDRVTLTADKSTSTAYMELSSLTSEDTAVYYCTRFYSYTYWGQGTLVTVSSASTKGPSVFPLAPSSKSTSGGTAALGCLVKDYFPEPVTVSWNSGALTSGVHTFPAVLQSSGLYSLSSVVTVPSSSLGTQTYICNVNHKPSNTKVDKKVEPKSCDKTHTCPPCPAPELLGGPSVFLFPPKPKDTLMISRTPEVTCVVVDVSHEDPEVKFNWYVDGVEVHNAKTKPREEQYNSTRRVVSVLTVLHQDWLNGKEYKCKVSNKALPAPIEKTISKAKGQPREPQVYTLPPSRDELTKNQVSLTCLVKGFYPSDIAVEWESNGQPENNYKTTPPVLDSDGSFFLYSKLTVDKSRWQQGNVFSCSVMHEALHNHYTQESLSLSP
light: DIVMTQSPLSLPVTPGEPASISCQASESLVHSNRNTYLHWYLQKPGQSPQLLIYKVSNRFSGVPDRFSGSGSGTDFTLKISRVEAEDVGVYYCSQNTHVPPTFGQGTKVEIE
notes: as for B1
relative binding activity [1]: 12 % of GpH7-B3/GpL16-k0

B3: IgG1-v1 (antibody containing IL6R-G1d_v1 as H chain and IL6R-L as L chain) (antibody)
heavy: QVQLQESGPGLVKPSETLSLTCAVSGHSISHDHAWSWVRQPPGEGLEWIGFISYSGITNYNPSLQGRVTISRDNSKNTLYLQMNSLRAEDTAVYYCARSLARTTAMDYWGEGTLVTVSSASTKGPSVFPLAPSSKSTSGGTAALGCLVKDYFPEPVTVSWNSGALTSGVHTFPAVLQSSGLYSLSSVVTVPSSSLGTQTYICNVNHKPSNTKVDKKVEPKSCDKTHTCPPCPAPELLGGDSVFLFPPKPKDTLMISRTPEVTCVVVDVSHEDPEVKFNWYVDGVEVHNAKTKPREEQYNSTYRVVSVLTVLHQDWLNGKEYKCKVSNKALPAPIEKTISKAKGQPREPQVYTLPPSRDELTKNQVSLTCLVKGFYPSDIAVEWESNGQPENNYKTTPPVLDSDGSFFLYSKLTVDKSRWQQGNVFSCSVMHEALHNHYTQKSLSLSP
light: DIQMTQSPSSLSASVGDRVTITCRASQDISSYLNWYQQKPGKAPKLLIYYTSRLHSGVPSRFSGSGSGTDFTFTISSLQPEDIATYYCQQGNTLPYTFGQGTKVEIK
notes: IL6R-G1d with P238D (EU numbering); also called P238D
relative KD (KD of IgG1 / KD of the variant) [2]: 0.047 fold | relative KD (KD of IgG1 / KD of the variant) [3]: 0.1 fold | relative KD (KD of IgG1 / KD of the variant) [4]: 0.014 fold | relative KD (KD of IgG1 / KD of the variant) [5]: 4.8 fold

B4: IgG1-v2 (antibody containing IL6R-G1d_v2 as H chain and IL6R-L as L chain) (antibody)
heavy: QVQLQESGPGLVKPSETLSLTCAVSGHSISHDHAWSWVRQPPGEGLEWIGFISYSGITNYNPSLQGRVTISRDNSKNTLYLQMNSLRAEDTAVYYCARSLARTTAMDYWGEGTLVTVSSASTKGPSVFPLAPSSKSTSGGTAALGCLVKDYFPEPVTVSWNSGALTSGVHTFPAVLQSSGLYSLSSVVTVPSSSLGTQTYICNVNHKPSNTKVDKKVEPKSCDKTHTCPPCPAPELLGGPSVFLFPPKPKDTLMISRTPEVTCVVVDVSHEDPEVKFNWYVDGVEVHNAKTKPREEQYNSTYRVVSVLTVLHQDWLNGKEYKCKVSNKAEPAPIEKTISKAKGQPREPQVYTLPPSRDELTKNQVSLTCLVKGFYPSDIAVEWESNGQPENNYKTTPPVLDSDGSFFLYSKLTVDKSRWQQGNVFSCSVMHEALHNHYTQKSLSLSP
light: DIQMTQSPSSLSASVGDRVTITCRASQDISSYLNWYQQKPGKAPKLLIYYTSRLHSGVPSRFSGSGSGTDFTFTISSLQPEDIATYYCQQGNTLPYTFGQGTKVEIK
notes: IL6R-G1d with L328E (EU numbering); also called L328E
relative KD (KD of IgG1 / KD of the variant) [2]: 0.74 fold | relative KD (KD of IgG1 / KD of the variant) [3]: 0.41 fold | relative KD (KD of IgG1 / KD of the variant) [4]: 0.064 fold | relative KD (KD of IgG1 / KD of the variant) [5]: 2.3 fold

B5: IgG1-v3 (antibody containing IL6R-G1d_v3 as H chain and IL6R-L as L chain) (antibody)
heavy: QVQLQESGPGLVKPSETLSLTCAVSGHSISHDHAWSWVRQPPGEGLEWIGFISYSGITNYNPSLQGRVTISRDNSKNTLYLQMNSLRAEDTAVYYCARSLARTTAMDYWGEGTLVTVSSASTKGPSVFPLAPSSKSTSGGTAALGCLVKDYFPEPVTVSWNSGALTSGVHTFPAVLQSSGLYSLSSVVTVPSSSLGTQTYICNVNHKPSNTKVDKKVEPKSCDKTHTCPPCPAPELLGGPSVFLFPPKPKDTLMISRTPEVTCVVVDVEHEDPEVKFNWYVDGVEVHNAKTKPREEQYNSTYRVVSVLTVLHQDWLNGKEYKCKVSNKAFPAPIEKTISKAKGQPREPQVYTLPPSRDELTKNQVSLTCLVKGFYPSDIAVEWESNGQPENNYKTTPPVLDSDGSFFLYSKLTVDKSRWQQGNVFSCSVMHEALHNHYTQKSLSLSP
light: DIQMTQSPSSLSASVGDRVTITCRASQDISSYLNWYQQKPGKAPKLLIYYTSRLHSGVPSRFSGSGSGTDFTFTISSLQPEDIATYYCQQGNTLPYTFGQGTKVEIK
notes: IL6R-G1d with S267E/L328F (EU numbering); also called S267E/L328F
relative KD (KD of IgG1 / KD of the variant) [2]: 1.8 fold | relative KD (KD of IgG1 / KD of the variant) [3]: 522 fold | relative KD (KD of IgG1 / KD of the variant) [4]: 0.51 fold | relative KD (KD of IgG1 / KD of the variant) [5]: 408 fold

B6: IL6R-B3/IL6R-L (antibody, human IgG1)
heavy: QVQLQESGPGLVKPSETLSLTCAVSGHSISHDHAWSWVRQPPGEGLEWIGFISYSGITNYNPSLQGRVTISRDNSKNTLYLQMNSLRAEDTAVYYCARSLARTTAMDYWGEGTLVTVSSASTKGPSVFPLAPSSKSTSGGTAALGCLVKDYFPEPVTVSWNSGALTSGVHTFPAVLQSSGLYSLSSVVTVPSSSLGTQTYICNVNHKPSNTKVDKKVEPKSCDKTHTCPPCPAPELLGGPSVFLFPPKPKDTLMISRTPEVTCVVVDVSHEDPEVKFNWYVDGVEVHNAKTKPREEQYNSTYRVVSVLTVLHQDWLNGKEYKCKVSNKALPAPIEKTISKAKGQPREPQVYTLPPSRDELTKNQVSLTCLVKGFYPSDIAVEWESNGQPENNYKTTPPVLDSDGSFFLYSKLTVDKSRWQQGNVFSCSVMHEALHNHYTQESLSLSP
light: DIQMTQSPSSLSASVGDRVTITCRASQDISSYLNWYQQKPGKAPKLLIYYTSRLHSGVPSRFSGSGSGTDFTFTISSLQPEDIATYYCQQGNTLPYTFGQGTKVEIK
notes: IL6R-G1d with K439E (EU numbering); also called parent polypeptide
Kd [6]: 11 µM
